One block for each binder: values may come before it.
Assays:
FLAG-HSP90AB1 (WT) [1] = biological target: T1, FLAG-HSP90AB1 (WT) (human, UniProt P08238 1-724); assay: anti-FLAG immunoprecipitation from 293T cells, Western blot with anti-Cdc37 (FIG. 5D); the wild type is the reference
T1 construct: Expressed in cells together with HA-SMYD2 (so it may be methylated by SMYD2 in the assay); not shown: FLAG tag
Procedure: (§1) Then, cell lysates were immunoblotted with anti-FLAG, anti-SMYD2 and anti-ACTB (an internal control) antibodies. Part B depicts the results of immunoprecipitation analysis using 293T cells co-transfected with FLAG-Mock or FLAG-HSP90AB1 (WT) and HA-HSP90AB1 (WT or K531A/K574A) expression vectors in the presence of an HA-SMYD2 expression vector. Immunoprecipitation was performed using anti-FLAG^{(registered trademark)} M2 agarose beads, and samples were immunoblotted with anti-FLAG and anti-HA antibodies. Part C depicts the results of immunoprecipitation analysis using 293T cells co-transfected with FLAG-Mock or FLAG-HSP90AB1 (WT) and HA-HSP90AB1 (WT, K531A or K574A) expression vectors in the presence of an HA-SMYD2 expression vector. Immunoprecipitation was performed using anti-FLAG^{(registered trademark)} M2 agarose beads, and samples were immunoblotted with anti-FLAG and anti-HA antibodies. Part D and E depict that the methylation of K574 on HSP90AB1 is important for binding to some co-chaperones. 293T cells were transfected with FLAG-HSP90AB1 (WT) or FLAG-HSP90AB1 (K531A/K574A) (D), FLAG-Mock, FLAG-HSP90AB1 (WT), FLAG-HSP90AB1 (K531A) or FLAG-HSP90AB1 (K574A) (E) expression vectors, in the presence of an HA-SMYD2 expression vector. […]

FLAG-HSP90AB1 (K574A) = biological target: T2, FLAG-HSP90AB1 (K574A) (human, UniProt P08238 1-724); assay: anti-FLAG immunoprecipitation from 293T cells, Western blot with anti-p23 (FIG. 5E)
T2 construct: Expressed in 293T cells in the presence of HA-SMYD2; not shown: FLAG tag
Procedure: as §1

[2] = biological target: T3, FLAG-HSP90AB1 (K531A/K574A) (human, UniProt P08238 1-724); assay: anti-FLAG immunoprecipitation from 293T cells, Western blot with anti-p23 (FIG. 5D)
T3 construct: Expressed in 293T cells in the presence of HA-SMYD2; also called K531A/K574A substitution of HSP90AB1; not shown: FLAG tag
Procedure: as §1

FLAG-HSP90AB1 (WT) [3] = biological target: T1, FLAG-HSP90AB1 (WT); assay: anti-FLAG immunoprecipitation from 293T cells, Western blot with anti-p23 (FIG. 5D); the wild type is the reference
Procedure: as §1

T1 sequence (P08238 whole entry): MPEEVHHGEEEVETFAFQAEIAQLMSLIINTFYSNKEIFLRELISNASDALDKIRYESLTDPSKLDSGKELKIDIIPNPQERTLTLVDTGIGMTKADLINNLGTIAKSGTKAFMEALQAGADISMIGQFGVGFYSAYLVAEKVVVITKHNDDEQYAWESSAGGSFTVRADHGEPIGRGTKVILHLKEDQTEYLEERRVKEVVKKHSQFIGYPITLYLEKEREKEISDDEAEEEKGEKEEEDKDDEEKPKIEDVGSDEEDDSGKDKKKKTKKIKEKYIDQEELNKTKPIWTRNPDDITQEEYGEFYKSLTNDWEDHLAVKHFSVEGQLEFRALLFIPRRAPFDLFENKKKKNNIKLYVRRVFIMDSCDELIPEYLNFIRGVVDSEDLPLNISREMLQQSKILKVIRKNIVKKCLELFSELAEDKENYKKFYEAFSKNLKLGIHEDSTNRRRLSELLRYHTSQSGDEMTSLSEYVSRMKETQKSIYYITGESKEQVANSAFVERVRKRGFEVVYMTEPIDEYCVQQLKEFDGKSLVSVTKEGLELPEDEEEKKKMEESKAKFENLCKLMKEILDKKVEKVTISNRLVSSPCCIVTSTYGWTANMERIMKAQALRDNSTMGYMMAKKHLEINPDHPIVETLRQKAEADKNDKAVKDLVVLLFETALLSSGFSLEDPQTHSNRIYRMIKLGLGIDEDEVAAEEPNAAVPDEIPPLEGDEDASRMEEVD
T2 sequence (P08238 whole entry K574A): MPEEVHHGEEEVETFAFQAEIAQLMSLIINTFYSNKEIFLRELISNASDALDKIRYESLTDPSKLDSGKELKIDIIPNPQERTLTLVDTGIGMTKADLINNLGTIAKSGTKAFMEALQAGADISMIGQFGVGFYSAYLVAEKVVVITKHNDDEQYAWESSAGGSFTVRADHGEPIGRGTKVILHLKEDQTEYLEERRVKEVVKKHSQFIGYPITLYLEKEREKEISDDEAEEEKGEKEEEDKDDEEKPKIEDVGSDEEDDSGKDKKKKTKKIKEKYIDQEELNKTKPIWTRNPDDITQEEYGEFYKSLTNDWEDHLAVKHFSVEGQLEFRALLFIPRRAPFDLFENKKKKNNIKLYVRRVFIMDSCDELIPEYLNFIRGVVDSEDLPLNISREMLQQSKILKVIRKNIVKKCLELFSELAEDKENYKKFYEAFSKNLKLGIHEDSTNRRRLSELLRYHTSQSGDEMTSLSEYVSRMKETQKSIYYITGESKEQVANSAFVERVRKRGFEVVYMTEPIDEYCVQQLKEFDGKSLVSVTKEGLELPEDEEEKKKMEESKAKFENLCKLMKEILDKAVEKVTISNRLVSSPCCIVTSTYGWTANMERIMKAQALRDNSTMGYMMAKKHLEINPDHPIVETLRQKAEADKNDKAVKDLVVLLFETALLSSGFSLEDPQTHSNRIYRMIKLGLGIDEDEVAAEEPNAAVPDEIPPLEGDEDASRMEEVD
T3 sequence (P08238 whole entry K531A/K574A): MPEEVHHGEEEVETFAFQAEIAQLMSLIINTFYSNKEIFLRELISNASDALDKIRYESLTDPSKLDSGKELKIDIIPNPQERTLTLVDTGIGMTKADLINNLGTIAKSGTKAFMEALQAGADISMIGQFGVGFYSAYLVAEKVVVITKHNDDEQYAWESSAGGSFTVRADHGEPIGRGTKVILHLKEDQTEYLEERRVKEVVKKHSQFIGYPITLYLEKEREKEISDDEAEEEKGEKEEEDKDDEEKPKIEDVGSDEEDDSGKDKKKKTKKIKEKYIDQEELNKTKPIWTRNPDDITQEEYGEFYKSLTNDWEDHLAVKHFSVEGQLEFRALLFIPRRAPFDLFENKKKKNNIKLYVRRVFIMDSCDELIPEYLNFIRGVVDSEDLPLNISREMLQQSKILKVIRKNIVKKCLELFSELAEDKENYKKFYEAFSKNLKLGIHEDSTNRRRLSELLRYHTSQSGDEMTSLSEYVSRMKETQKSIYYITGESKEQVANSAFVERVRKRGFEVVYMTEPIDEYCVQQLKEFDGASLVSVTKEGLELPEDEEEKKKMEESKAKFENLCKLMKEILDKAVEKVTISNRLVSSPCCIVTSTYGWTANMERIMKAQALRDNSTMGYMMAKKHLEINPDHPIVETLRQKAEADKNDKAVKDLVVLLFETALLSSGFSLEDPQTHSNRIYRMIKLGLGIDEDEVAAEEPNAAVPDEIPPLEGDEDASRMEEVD

binding result (FLAG-HSP90AB1 (WT) [1]): binds
B1: Cdc37 (other, UniProt Q16543 1-378, looked up)
chain: MVDYSVWDHIEVSDDEDETHPNIDTASLFRWRHQARVERMEQFQKEKEELDRGCRECKRKVAECQRKLKELEVAEGGKAELERLQAEAQQLRKEERSWEQKLEEMRKKEKSMPWNVDTLSKDGFSKSMVNTKPEKTEEDSEEVREQKHKTFVEKYEKQIKHFGMLRRWDDSQKYLSDNVHLVCEETANYLVIWCIDLEVEEKCALMEQVAHQTIVMQFILELAKSLKVDPRACFRQFFTKIKTADRQYMEGFNDELEAFKERVRGRAKLRIEKAMKEYEEEERKKRLGPGGLDPVEVYESLPEELQKCFDVKDVQMLQDAISKMDPTDAKYHMQRCIDSGLWVPNSKASEAKEGEEAGPGDPLLEAVPKTGDEKDVSV
notes: Endogenous in 293T cell lysate

binding result (FLAG-HSP90AB1 (K574A)): binds
binding result [2]: binds
binding result (FLAG-HSP90AB1 (WT) [3]): binds
B2: p23 (other, UniProt Q15185 1-160, looked up)
chain: MQPASAKWYDRRDYVFIEFCVEDSKDVNVNFEKSKLTFSCLGGSDNFKHLNEIDLFHCIDPNDSKHKRTDRSILCCLRKGESGQSWPRLTKERAKLNWLSVDFNNWKDWEDDSDEDMSNFDRFSEMMNNMGGDEDVDLPEVDGADDDSQDSDDEKMPDLE
notes: as for B1

Reference: patent publication US20140308678A1 (ONCOTHERAPY SCIENCE, published 2014)
